Results on 1 substance are retold here after doi:10.1101/2023.06.08.544223.

The test deals with SPARDA complex (heterodimer of NbaAgo and DREN-APAZ), wild type (Novosphingopyxis baekryungensis). The test can be described thus: SEC. (In general: In gel filtration, larger molecules generally elute earlier.)

Regarding “SPARDA complex (heterodimer of NbaAgo and DREN-APAZ), wild type”, the stoichiometry N was found to be 2.

A word on the stoichiometry N: it is the number of molecules, sites or subunits per partner or assembly.
